Measured values from patent US20250313625A1 (ELPISCIENCE SUZHOU BIOPHARMA, published 2025).
Residue numbers refer to the chain shown, from its start. Names may count otherwise.

What was measured:
[1] = molecular target: T1, human LAG3, full length, stably expressed on cells (human, UniProt P18627 23-525); test: FACS on 293F cells stably expressing human LAG3
T1 construct: whole, on cells; also called CHOK1-human LAG3
T1 sequence (looked up): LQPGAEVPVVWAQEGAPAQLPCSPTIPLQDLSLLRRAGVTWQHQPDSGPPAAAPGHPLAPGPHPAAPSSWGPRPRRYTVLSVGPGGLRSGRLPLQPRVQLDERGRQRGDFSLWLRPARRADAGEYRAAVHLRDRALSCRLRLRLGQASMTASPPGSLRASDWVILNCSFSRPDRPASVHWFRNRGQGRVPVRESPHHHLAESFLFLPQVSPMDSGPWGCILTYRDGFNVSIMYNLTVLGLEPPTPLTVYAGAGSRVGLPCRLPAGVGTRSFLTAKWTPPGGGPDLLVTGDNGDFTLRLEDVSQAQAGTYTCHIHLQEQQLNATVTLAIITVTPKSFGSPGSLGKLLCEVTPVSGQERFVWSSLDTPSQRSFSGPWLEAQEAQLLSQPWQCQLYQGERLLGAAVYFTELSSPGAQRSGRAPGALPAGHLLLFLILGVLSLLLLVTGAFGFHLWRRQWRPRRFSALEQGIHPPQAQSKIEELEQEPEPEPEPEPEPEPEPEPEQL
Method: (§1) Briefly the antibodies were incubated with 2×10⁵ target cells at 4° C. for 1 hour. After washing, fluorescence labeled anti-mouse IgG 2nd antibody (Life Technologies) was added and incubated at 4° C. for 1 hour. Geometric median fluorescence intensity (MFI) was detected and EC₅₀ was calculated using GraphPad Prism9.0.
MFI was detected and EC₅₀ was calculated using GraphPad Prism9.0.

[2] = molecular target: T2, mFc tagged human LAG3 ECD recombinant protein (human, UniProt P18627 23-450); test: competitive FACS: mFc-LAG3 ECD binding to Raji cells (MHC II)
T2 construct: extracellular domain; purchased from Biointron; not shown: mouse IgG Fc (mFc) tag
T2 sequence (looked up): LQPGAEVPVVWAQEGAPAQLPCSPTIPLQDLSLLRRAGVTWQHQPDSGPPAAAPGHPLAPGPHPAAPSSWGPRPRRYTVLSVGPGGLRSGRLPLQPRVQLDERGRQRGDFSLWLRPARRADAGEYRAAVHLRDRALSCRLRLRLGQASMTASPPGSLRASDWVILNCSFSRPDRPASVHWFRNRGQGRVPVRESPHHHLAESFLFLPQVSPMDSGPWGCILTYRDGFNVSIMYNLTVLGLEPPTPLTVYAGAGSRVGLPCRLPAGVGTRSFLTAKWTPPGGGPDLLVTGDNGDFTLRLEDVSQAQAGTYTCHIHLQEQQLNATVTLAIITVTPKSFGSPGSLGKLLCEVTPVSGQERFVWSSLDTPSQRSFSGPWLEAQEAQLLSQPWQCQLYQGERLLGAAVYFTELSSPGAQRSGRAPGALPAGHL
Method: (§2) Activity of the purified chimeric antibodies to block LAG3 and MHC II interaction was determined by competitive FACS assay. […] After washing, dye labeled anti-mouse Fc 2nd antibody (Sigma) was added and incubated at 37° C. for 1 hour. Fluorescence intensity was detected.

[3] = molecular target: T3, hFc tagged human LAG3 D1-D2 recombinant protein (human, UniProt P18627 23-261); test: ELISA, coated hFc-hLAG3 D1-D2
T3 construct: range 23-261; generated by Chempartner; also called hLAG3 D1-D2; not shown: human IgG Fc tag
T3 sequence (looked up): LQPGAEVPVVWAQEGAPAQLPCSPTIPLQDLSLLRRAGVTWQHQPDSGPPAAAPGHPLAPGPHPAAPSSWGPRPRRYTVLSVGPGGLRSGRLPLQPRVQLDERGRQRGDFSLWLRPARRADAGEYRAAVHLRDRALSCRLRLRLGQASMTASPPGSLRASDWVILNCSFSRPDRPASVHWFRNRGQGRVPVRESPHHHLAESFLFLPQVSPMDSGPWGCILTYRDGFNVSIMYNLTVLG
Method: Binding activity of the purified hybridoma antibodies against human LAG3 was detected by ELISA assay using hFc tagged human LAG3 D1-D2 recombinant protein. Briefly the antibodies were incubated with ELISA microplate coated antigens at 37° C. for 1 hour. After washing, horseradish peroxidase (HRP) labeled anti-human IgG 2nd Ab (Sigma) was added and incubated at 37° C. for 1 hour. Then, 100 μl/well of TMB solution (Biotechnology) was added. After incubation for 15 minutes at room temperature, the reaction was stopped by the addition of 50 μl of 1N HCl. OD 450 nm was read and EC₅₀ was calculated using GraphPad Prism9.0.

[4] = molecular target: T1, human LAG3, full length, stably …; test: FACS on 293F-human LAG3 cells
Method: as §1

[5] = molecular target: T4, mouse LAG3, full length, stably expressed on CHOK1 cells (mouse, UniProt Q61790 24-521); test: FACS on CHOK1 cells expressing mouse LAG3
T4 construct: whole, on cells
T4 sequence (looked up): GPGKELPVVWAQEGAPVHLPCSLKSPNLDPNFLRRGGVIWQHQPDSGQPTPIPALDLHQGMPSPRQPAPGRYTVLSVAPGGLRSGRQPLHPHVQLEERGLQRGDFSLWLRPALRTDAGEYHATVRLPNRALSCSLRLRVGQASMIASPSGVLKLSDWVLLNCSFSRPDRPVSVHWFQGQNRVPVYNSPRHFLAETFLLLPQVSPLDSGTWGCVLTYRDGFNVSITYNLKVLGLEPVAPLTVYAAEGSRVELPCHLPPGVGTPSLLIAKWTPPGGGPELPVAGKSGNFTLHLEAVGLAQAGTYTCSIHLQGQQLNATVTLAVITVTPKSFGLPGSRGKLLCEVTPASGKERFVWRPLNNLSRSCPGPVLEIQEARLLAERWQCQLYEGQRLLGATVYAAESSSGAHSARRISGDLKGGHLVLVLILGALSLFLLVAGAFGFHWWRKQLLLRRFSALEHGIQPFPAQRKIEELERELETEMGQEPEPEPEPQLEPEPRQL
Method: as §1

[6] = molecular target: T5, hFc tagged human LAG3 ECD recombinant protein (human, UniProt P18627 23-450); test: competitive FACS: hFc-LAG3 ECD binding to Raji cells (MHC II)
T5 construct: range 23-450; also called biotin labelled hFc tagged human LAG3 ECD; not shown: human IgG Fc tag
T5 sequence (looked up): T2 sequence (looked up)
Method: Competitive FACS assay was used to determine whether the purified hybridoma antibodies can block LAG3 and MHC II interaction. […] After washing, dye labeled anti-human Fc 2nd antibody (Sigma) was added and incubated at 37° C. for 1 hour. Fluorescence intensity was detected.

[7] = molecular target: T5, hFc tagged human LAG3 ECD recombinant …; test: competitive ELISA: excess competitor, biotin hFc-LAG3 ECD, coated BAP-050
Method: (§3) Competitive ELISA assay was used for epitope binning of the purified hybridoma antibodies. […] After washing, HRP labeled anti-streptavidin (SA) 2nd antibody (Sigma) was added and incubated at 37° C. for 1 hour. Then, 100 μl/well of TMB solution (Biotechnology) was added. After incubation for 15 minutes at room temperature, the reaction was stopped by the addition of 50 μl of 1N HCl. OD 450 nm was read. Competition ratio was calculated.

[8] = molecular target: T5, hFc tagged human LAG3 ECD recombinant …; test: competitive ELISA: excess competitor, biotin hFc-LAG3 ECD, coated BMS-986016
Method: as §3

[9] = molecular target: T6, human LAG3 (form used in Octet, Biacore and HDX-MS not given) (human, UniProt P18627 23-450, limits assumed); test: BLI (Octet), 1:1 fit
T6 sequence (looked up): T2 sequence (looked up)
Method: (§4) The association and dissociation curves were fit with 1:1 binding model, and the Ka/Kd/KD values for each antibody were calculated.
as §4

[10] = molecular target: T2, mFc tagged human LAG3 ECD recombinant …; test: competitive FACS: mFc tagged human LAG3 ECD binding to MHC II on Raji cells
Method: as §2

[11] = molecular target: T6, human LAG3 (form used in Octet, Biacore …); test: BLI (Octet)

B1: 038c (antibody, human IgG4, V domains shown)
VH: DVQVQESGPGLVKPSQSLSLTCSVTGYSITSGYYWNWIRQFPGNKLEWMGYISYDGSNEYNLSLKNRLSITRDTSKNQFFLKLNSVTTEDTATYYCAREEDGYYGGMDYWGQGTSVTVSS
VL: DIVMTQSHKFMSASVGVRVSITCRASQDVDTAVAWYQQKPGQSPKLLIYWASTRHTGVPDRFTGSGSGTDFTLTISNVQSEDLADYFCQQYSSYPYTFGGGTKLEIK
notes: human IgG4 S228P / kappa chimeric antibody; also called chimeric antibody 038; not shown: human kappa light chain constant region (pcDNA3.4-hIgGk vector)
EC50 [1]: 2.3 nM
IC50 [2]: 5.2 nM
TOP blocking (%) [2]: 98.4%

B2: Antibody 015 (antibody, V domains shown)
VH: EVQLQQSGPVLVKPGASVKLSCKASGFTFTDYYMNWVKLSHGKSLEWIGVINPFNGDTAYKQKFKGKATLTVDKSSSTAYMELNSLTSEDSAVYYCARDDGYYLYYFDSWGQGTTLTVSS
VL: DIQMTQSPSSLSASLGERVSLTCRASQDIGSRLNWLQQEPDGTIKRLIYATSSLDSGVPKRFSGSRSGSDYSLTISSLDSEDFVVYYCLQYASSPPTFGAGTKLELK
notes: mouse hybridoma antibody
EC50 [3]: 0.25 nM
EC50 [4]: 2.09 nM
binding result [5]: no binding
IC50 [6]: 2.7 nM
TOP blocking (%) [6]: 94.3%
% competition [7]: 1.6%
% competition [8]: 10%

B3: hu029.53 (antibody, V domains shown)
VH: QVQLVESGGGLVKPGGSLRLSCAASGFTFSSYAMSWIRQAPGKGLEWVAYVTSGGDYIYYADTVKGRFTISRDDAKNSLYLQMNSLRAEDTAMYYCTRVAYDYEWYFDVWGQGALVTVSS
VL: DIQMTQSPSSVSASVGDRVTITCKASQDVTTAVAWYQQKPGKAPKLLIYSASYRYTGVPSRFSGSGSGTDFTLTISSLQPEDFATYYCQQHDSSPWTFGQGTKLEIK
notes: humanized from 029c
Kd [9]: 4.94 nM
koff [9]: 0.0217 s⁻¹
kon [9]: 4.38e+06 M⁻¹ s⁻¹
%Blocking at 2 nM [10]: 21.4%
%Blocking at 4 nM [10]: 31.9%
%Blocking at 8 nM [10]: 98%

B4: hu023.05 (antibody, human IgG4, V domains shown)
VH: QVQLVQSGAEVKKPGASVKVSCKASGYTFTESPMNWVRQAPGQGFEWMGIIYTDTGEPTYAEEFKGRVTMTRDTSTSTVYMELSSLRSEDTAVYFCASDYGSILYWYFDVWGQGTLVTVSS
VL: B3 VL with V11L, T30S, A43S, L73F, D92Y, S93N, S94A, W96P
notes: humanized from 023c
Kd [11]: 0.616 nM
koff [11]: 0.000198 s⁻¹
kon [11]: 321000 M⁻¹ s⁻¹

B5: hu023.08 (antibody, human IgG4, V domains shown)
VH: B4 VH with A9P, R72L
VL: B3 VL with V11L, T30S, A43S, L73F, D92Y, S93N, S94A, W96P
notes: humanized from 023c
Kd [11]: 0.689 nM
koff [11]: 0.000219 s⁻¹
kon [11]: 318000 M⁻¹ s⁻¹

B6: hu023.09 (antibody, human IgG4, V domains shown)
VH: B4 VH with A9P, R72L
VL: B3 VL with V11L, A13T, T30S, A43S, L73F, L78V, D92Y, S93N, S94A, W96P
notes: humanized from 023c
Kd [11]: 0.704 nM
koff [11]: 0.000204 s⁻¹
kon [11]: 290000 M⁻¹ s⁻¹

B7: hu023.12 (antibody, human IgG4, V domains shown)
VH: QVQLVQSGPELKKPGASVKVSCKASGYTFTESPMNWVRQAPGQGFEWMGIIYTDTGEPTYAEEFKGRFVFSLDTSVSTAYLQISSLKAEDTAVYFCVSDYGSILYWYFDVWGQGTLVTVSS
VL: B3 VL with V11L, A13T, T30S, A43S, L73F, L78V, D92Y, S93N, S94A, W96P
notes: humanized from 023c
Kd [11]: 0.189 nM
koff [11]: 5.58e-05 s⁻¹
kon [11]: 296000 M⁻¹ s⁻¹

B8: hu023.14 (antibody, human IgG4, V domains shown)
VH: B7 VH with V2I, V20I
VL: B3 VL with V11L, T30S, A43S, L73F, D92Y, S93N, S94A, W96P
notes: humanized from 023c
Kd [11]: 0.24 nM
koff [11]: 7.72e-05 s⁻¹
kon [11]: 322000 M⁻¹ s⁻¹

B9: hu029.40 (antibody, V domains shown)
VH: B3 VH with I37V, G44R
VL: B3 VL with A13T, L73F, L78V
notes: humanized from 029c
Kd [9]: 4.79 nM
koff [9]: 0.0224 s⁻¹
kon [9]: 4.68e+06 M⁻¹ s⁻¹
%Blocking at 2 nM [10]: 19.6%
%Blocking at 4 nM [10]: 43.4%
%Blocking at 8 nM [10]: 99.1%

B10: hu023.06 (antibody, human IgG4, V domains shown)
VH: B4 VH
VL: B3 VL with V11L, A13T, T30S, A43S, L73F, L78V, D92Y, S93N, S94A, W96P
notes: humanized from 023c
Kd [11]: 0.657 nM
koff [11]: 0.000161 s⁻¹
kon [11]: 246000 M⁻¹ s⁻¹
